{"source": "paper PMC4694770", "about": "“Gene Regulatory Mechanisms Underlying the Spatial and Temporal Regulation of Target-Dependent Gene Expression in Drosophila Neurons”", "binders": {"B1": {"name": "DR1 Svp probe (dsDNA)", "DNA 1": "AGCTCTCAGGTCAGAGGTCAGAGAGCT", "DNA 2": "AGCTCTCTGACCTCTGACCTGAGAGCT"}, "B2": {"name": "MutMad BMP-RE competitor (dsDNA)", "DNA 1": "GCCAGATAGTAGACAATGTATCCCGTT", "DNA 2": "AACGGGATACATTGTCTACTATCTGGC"}, "B3": {"name": "BMP-RE probe (dsDNA)", "DNA 1": "GCCAGAGGCGCCACAATGTATCCCGTT", "DNA 2": "AACGGGATACATTGTGGCGCCTCTGGC"}}, "key": {"His::Svp": {"molecular_target": "T1, His::Svp (Drosophila melanogaster, UniProt P16375 1-543)", "T1 sequence": "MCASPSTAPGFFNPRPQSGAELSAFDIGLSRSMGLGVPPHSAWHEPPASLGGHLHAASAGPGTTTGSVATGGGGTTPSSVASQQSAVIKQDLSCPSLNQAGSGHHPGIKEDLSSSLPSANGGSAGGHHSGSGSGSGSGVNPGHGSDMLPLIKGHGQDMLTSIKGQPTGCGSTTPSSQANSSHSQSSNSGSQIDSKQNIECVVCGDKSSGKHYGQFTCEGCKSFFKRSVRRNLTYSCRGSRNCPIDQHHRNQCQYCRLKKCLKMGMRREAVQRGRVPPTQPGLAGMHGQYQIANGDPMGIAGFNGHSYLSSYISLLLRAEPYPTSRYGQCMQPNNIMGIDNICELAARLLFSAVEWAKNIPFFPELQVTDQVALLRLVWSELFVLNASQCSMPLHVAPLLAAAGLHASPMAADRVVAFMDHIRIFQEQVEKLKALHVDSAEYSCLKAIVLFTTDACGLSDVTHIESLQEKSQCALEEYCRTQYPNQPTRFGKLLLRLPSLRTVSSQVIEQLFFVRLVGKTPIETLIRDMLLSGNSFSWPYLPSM", "experiment": "EMSA; with or without poly(dI-dC); out-competed by WT at 20:1; Ap: 20 mM HEPES pH 7.8, 50 mM KCl, 10% glycerol, 0.25 mM EDTA, 0.1 mg/ml BSA, 1 mM DTT, 21 C; Mad: 25 mM Tris pH 7.5, 35 mM KCl, 80 mM NaCl, 5 mM MgCl2, 3.5 mM", "conditions": "protein: recombinant; tags: N-term His; GST removed with PreScission protease; chain copies: 2; label: IRDye 700"}, "GST-MH1-Mad (GST-MadN) [1]": {"molecular_target": "T2, GST-MH1-Mad (GST-MadN) (Drosophila melanogaster, UniProt P42003 26-150)", "T2 sequence (P42003 26-150)": "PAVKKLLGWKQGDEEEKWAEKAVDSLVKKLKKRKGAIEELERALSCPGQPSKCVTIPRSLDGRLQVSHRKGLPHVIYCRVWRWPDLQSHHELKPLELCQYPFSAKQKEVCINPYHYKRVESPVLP", "experiment": "competition; vs labeled BMP-RE; Ap: 20 mM HEPES pH 7.8, 50 mM KCl, 10% glycerol, 0.25 mM EDTA, 0.1 mg/ml BSA, 1 mM DTT, 21 C; Mad: 25 mM Tris pH 7.5, 35 mM KCl, 80 mM NaCl, 5 mM MgCl2, 3.5 mM", "conditions": "protein: recombinant; tags: GST (pGEX6p1); label: unlabeled"}, "GST-MH1-Mad (GST-MadN) [2]": {"molecular_target": "T2, GST-MH1-Mad (GST-MadN)", "experiment": "EMSA; 1 ug poly(dI-dC), 5 mM MgCl2; out-competed by unlabeled WT; Ap: 20 mM HEPES pH 7.8, 50 mM KCl, 10% glycerol, 0.25 mM EDTA, 0.1 mg/ml BSA, 1 mM DTT, 21 C; Mad: 25 mM Tris pH 7.5, 35 mM KCl, 80 mM NaCl, 5 mM MgCl2, 3.5 mM", "conditions": "protein: recombinant; tags: GST (pGEX6p1); label: IRDye 700"}}}
{"binder": "B1", "values": [{"measurement": "binding result", "setting": "His::Svp", "result": "binds"}]}
{"binder": "B2", "values": [{"measurement": "binding result", "setting": "GST-MH1-Mad (GST-MadN) [1]", "result": "no binding"}]}
{"binder": "B3", "values": [{"measurement": "binding result", "setting": "GST-MH1-Mad (GST-MadN) [2]", "result": "binds"}]}
